Data set [1] deals with T1, alpha-thrombin (UniProt P00734;P00734 328-363;364-622). Description: flow cytometry, sandwich on T27-AR-captured thrombin. Background: Flow cytometry measures light scatter and fluorescence of single cells or particles in a stream.
In a further data set the target is streptavidin (UniProt P22629 25-183). Put plainly: flow cytometry, SA-488 capture on CEM cells.
The target of data set [2] is T1, alpha-thrombin. Put plainly: flow cytometry, thrombin capture on CEM cells, T-15-biotin/SA-488 read-out.

streptavidin, sequence (P22629 25-183): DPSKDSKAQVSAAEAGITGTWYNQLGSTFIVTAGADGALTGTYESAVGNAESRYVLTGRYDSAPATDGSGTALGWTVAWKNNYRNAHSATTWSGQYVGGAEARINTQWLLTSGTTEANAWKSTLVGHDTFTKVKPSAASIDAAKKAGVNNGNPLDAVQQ

B1: T-15 (ssDNA)
DNA: GGTTGGTGTGGTTGG
On to B1, for which the binding result with alpha-thrombin [1] is on record as “binds”.

B2: SA-AR (ssDNA)
DNA: TTTTTTTATTGACCGCTGTGTGACGCAACACTCAAT
modifications: 5' diacyllipid
Consider B2, for which the binding result in the data set with streptavidin is “binds”.

B3: T27-AR (ssDNA)
DNA: TTTTTTTGTCCGTGGTAGGGCAGGTTGGGGTGAC
modifications: 5' diacyllipid
Consider B3, for which the binding result with alpha-thrombin [2] is given as “binds”.

For the origin of these results see article PMC3840377.
